Among the data in publication PMC10786891, “Massively parallel profiling of RNA-targeting CRISPR-Cas13d” are Kd values, retold here.

Broadly, the Kd is the concentration at which binding is half-saturated. A lower Kd goes with a tighter complex.

The labels stand for the following.
T1: EsCas13d, nuclease-dead (Eubacterium siraeum, UniProt B0MS50, R295A;H300A;R849A;H854A)
T1 sequence: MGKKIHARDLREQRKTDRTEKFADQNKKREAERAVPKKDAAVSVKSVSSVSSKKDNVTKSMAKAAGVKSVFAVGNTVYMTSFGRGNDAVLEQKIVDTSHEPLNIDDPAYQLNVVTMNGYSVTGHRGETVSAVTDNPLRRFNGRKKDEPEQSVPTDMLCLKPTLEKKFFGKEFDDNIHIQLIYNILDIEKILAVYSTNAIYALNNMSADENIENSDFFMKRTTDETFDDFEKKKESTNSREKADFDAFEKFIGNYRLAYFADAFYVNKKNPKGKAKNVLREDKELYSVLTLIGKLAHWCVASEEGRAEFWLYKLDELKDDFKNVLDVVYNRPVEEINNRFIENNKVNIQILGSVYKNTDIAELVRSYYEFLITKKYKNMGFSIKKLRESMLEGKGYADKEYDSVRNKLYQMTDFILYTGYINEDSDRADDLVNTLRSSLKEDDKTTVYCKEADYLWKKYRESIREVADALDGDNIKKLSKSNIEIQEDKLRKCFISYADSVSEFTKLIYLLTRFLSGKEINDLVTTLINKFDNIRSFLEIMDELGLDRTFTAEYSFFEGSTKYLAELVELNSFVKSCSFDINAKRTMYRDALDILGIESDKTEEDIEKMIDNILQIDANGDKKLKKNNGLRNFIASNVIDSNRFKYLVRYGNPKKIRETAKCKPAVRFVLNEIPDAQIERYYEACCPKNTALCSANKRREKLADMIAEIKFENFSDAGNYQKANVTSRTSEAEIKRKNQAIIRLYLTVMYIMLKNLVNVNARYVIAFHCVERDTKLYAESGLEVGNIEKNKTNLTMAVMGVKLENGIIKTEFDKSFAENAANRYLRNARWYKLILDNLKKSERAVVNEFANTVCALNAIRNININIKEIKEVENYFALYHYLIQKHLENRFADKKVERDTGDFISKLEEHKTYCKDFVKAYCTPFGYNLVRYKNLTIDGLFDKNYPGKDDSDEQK

B1: target 1 U3A,A14C (mixed)
RNA 1: CACCCGUGCAAAAAUGCAGGGGUCUAAAACUGAGCGGAUAACCUCUCUAUGG
RNA 2: GGGAAUGGAUCCACAUCUACGAAUUCGUACCAUAGAGCGGUUAUCCGCACACCGAGAUCGGAAGAGCACACGU
B2: target 1 insG 3' of 22,insA 3' of 10 (mixed)
RNA 1: CACCCGUGCAAAAAUGCAGGGGUCUAAAACUGAGCGGAUAACCUCUCUAUGG
RNA 2: GGGAAUGGAUCCACAUCUACGAAUUCGUACGCAUAGAGAGGUUAAUCCGCUCACCGAGAUCGGAAGAGCACACGU
B3: target 1 C2A,C22G (mixed)
RNA 1: CACCCGUGCAAAAAUGCAGGGGUCUAAAACUGAGCGGAUAACCUCUCUAUGG
RNA 2: GGGAAUGGAUCCACAUCUACGAAUUCGUAGCAUAGAGAGGUUAUCCGCUAACCGAGAUCGGAAGAGCACACGU
B4: target 1 insU 3' of 9,insA 3' of 5 (mixed)
RNA 1: CACCCGUGCAAAAAUGCAGGGGUCUAAAACUGAGCGGAUAACCUCUCUAUGG
RNA 2: GGGAAUGGAUCCACAUCUACGAAUUCGUACCAUAGAGAGGUUAUUCCGACUCACCGAGAUCGGAAGAGCACACGU
B5: target 1 A18C,C22U (mixed)
RNA 1: CACCCGUGCAAAAAUGCAGGGGUCUAAAACUGAGCGGAUAACCUCUCUAUGG
RNA 2: GGGAAUGGAUCCACAUCUACGAAUUCGUAUCAUCGAGAGGUUAUCCGCUCACCGAGAUCGGAAGAGCACACGU
B6: target 1 insA 3' of 12,insC 3' of 1 (mixed)
RNA 1: CACCCGUGCAAAAAUGCAGGGGUCUAAAACUGAGCGGAUAACCUCUCUAUGG
RNA 2: GGGAAUGGAUCCACAUCUACGAAUUCGUACCAUAGAGAGGAUUAUCCGCUCACCCGAGAUCGGAAGAGCACACGU
B7: target 1 insG 3' of 22,insA 3' of 22 (mixed)
RNA 1: CACCCGUGCAAAAAUGCAGGGGUCUAAAACUGAGCGGAUAACCUCUCUAUGG
RNA 2: GGGAAUGGAUCCACAUCUACGAAUUCGUACGACAUAGAGAGGUUAUCCGCUCACCGAGAUCGGAAGAGCACACGU
B8: target 1 insU 3' of 13,insA 3' of 4 (mixed)
RNA 1: CACCCGUGCAAAAAUGCAGGGGUCUAAAACUGAGCGGAUAACCUCUCUAUGG
RNA 2: GGGAAUGGAUCCACAUCUACGAAUUCGUACCAUAGAGAGUGUUAUCCGCAUCACCGAGAUCGGAAGAGCACACGU
B9: target 1 insU 3' of 6,insG 3' of 2 (mixed)
RNA 1: CACCCGUGCAAAAAUGCAGGGGUCUAAAACUGAGCGGAUAACCUCUCUAUGG
RNA 2: GGGAAUGGAUCCACAUCUACGAAUUCGUACCAUAGAGAGGUUAUCCUGCUCGACCGAGAUCGGAAGAGCACACGU
B10: target 1 insG 3' of 22,insG 3' of 16 (mixed)
RNA 1: CACCCGUGCAAAAAUGCAGGGGUCUAAAACUGAGCGGAUAACCUCUCUAUGG
RNA 2: GGGAAUGGAUCCACAUCUACGAAUUCGUACGCAUAGAGGAGGUUAUCCGCUCACCGAGAUCGGAAGAGCACACGU
B11: target 1 insU 3' of 14,insA 3' of 6 (mixed)
RNA 1: CACCCGUGCAAAAAUGCAGGGGUCUAAAACUGAGCGGAUAACCUCUCUAUGG
RNA 2: GGGAAUGGAUCCACAUCUACGAAUUCGUACCAUAGAGAUGGUUAUCCAGCUCACCGAGAUCGGAAGAGCACACGU
B12: target 1 insU 3' of 15,insU 3' of 4 (mixed)
RNA 1: CACCCGUGCAAAAAUGCAGGGGUCUAAAACUGAGCGGAUAACCUCUCUAUGG
RNA 2: GGGAAUGGAUCCACAUCUACGAAUUCGUACCAUAGAGUAGGUUAUCCGCUUCACCGAGAUCGGAAGAGCACACGU
B13: target 1 insC 3' of 15,insC 3' of 13 (mixed)
RNA 1: CACCCGUGCAAAAAUGCAGGGGUCUAAAACUGAGCGGAUAACCUCUCUAUGG
RNA 2: GGGAAUGGAUCCACAUCUACGAAUUCGUACCAUAGAGCAGCGUUAUCCGCUCACCGAGAUCGGAAGAGCACACGU
B14: target 1 insU 3' of 18,insU 3' of 14 (mixed)
RNA 1: CACCCGUGCAAAAAUGCAGGGGUCUAAAACUGAGCGGAUAACCUCUCUAUGG
RNA 2: GGGAAUGGAUCCACAUCUACGAAUUCGUACCAUAUGAGAUGGUUAUCCGCUCACCGAGAUCGGAAGAGCACACGU
B15: target 1 insA 3' of 13,insC 3' of 13 (mixed)
RNA 1: CACCCGUGCAAAAAUGCAGGGGUCUAAAACUGAGCGGAUAACCUCUCUAUGG
RNA 2: GGGAAUGGAUCCACAUCUACGAAUUCGUACCAUAGAGAGACGUUAUCCGCUCACCGAGAUCGGAAGAGCACACGU
B16: target 1 C2G,G12A (mixed)
RNA 1: CACCCGUGCAAAAAUGCAGGGGUCUAAAACUGAGCGGAUAACCUCUCUAUGG
RNA 2: GGGAAUGGAUCCACAUCUACGAAUUCGUACCAUAGAGAGAUUAUCCGCUGACCGAGAUCGGAAGAGCACACGU
B17: target 1 insA 3' of 12,insG 3' of 1 (mixed)
RNA 1: CACCCGUGCAAAAAUGCAGGGGUCUAAAACUGAGCGGAUAACCUCUCUAUGG
RNA 2: GGGAAUGGAUCCACAUCUACGAAUUCGUACCAUAGAGAGGAUUAUCCGCUCAGCCGAGAUCGGAAGAGCACACGU
B18: target 1 insU 3' of 4,insG 3' of 1 (mixed)
RNA 1: CACCCGUGCAAAAAUGCAGGGGUCUAAAACUGAGCGGAUAACCUCUCUAUGG
RNA 2: GGGAAUGGAUCCACAUCUACGAAUUCGUACCAUAGAGAGGUUAUCCGCUUCAGCCGAGAUCGGAAGAGCACACGU
B19: target 1 C6A,A14G (mixed)
RNA 1: CACCCGUGCAAAAAUGCAGGGGUCUAAAACUGAGCGGAUAACCUCUCUAUGG
RNA 2: GGGAAUGGAUCCACAUCUACGAAUUCGUACCAUAGAGGGGUUAUCAGCUCACCGAGAUCGGAAGAGCACACGU
B20: target 1 C2G,C21U (mixed)
RNA 1: CACCCGUGCAAAAAUGCAGGGGUCUAAAACUGAGCGGAUAACCUCUCUAUGG
RNA 2: GGGAAUGGAUCCACAUCUACGAAUUCGUACUAUAGAGAGGUUAUCCGCUGACCGAGAUCGGAAGAGCACACGU
B21: target 1 U11C,U19C (mixed)
RNA 1: CACCCGUGCAAAAAUGCAGGGGUCUAAAACUGAGCGGAUAACCUCUCUAUGG
RNA 2: GGGAAUGGAUCCACAUCUACGAAUUCGUACCACAGAGAGGCUAUCCGCUCACCGAGAUCGGAAGAGCACACGU
B22: target 1 insC 3' of 18,insG 3' of 8 (mixed)
RNA 1: CACCCGUGCAAAAAUGCAGGGGUCUAAAACUGAGCGGAUAACCUCUCUAUGG
RNA 2: GGGAAUGGAUCCACAUCUACGAAUUCGUACCAUACGAGAGGUUAUGCCGCUCACCGAGAUCGGAAGAGCACACGU
B23: target 1 insA 3' of 3,insA 3' of 2 (mixed)
RNA 1: CACCCGUGCAAAAAUGCAGGGGUCUAAAACUGAGCGGAUAACCUCUCUAUGG
RNA 2: GGGAAUGGAUCCACAUCUACGAAUUCGUACCAUAGAGAGGUUAUCCGCUACAACCGAGAUCGGAAGAGCACACGU
B24: target 1 insA 3' of 12,insA 3' of 2 (mixed)
RNA 1: CACCCGUGCAAAAAUGCAGGGGUCUAAAACUGAGCGGAUAACCUCUCUAUGG
RNA 2: GGGAAUGGAUCCACAUCUACGAAUUCGUACCAUAGAGAGGAUUAUCCGCUCAACCGAGAUCGGAAGAGCACACGU
B25: target 1 insG 3' of 7,insU 3' of 7 (mixed)
RNA 1: CACCCGUGCAAAAAUGCAGGGGUCUAAAACUGAGCGGAUAACCUCUCUAUGG
RNA 2: GGGAAUGGAUCCACAUCUACGAAUUCGUACCAUAGAGAGGUUAUCGUCGCUCACCGAGAUCGGAAGAGCACACGU
B26: target 1 U3G,G13A (mixed)
RNA 1: CACCCGUGCAAAAAUGCAGGGGUCUAAAACUGAGCGGAUAACCUCUCUAUGG
RNA 2: GGGAAUGGAUCCACAUCUACGAAUUCGUACCAUAGAGAAGUUAUCCGCGCACCGAGAUCGGAAGAGCACACGU
B27: target 1 G5C,A20U (mixed)
RNA 1: CACCCGUGCAAAAAUGCAGGGGUCUAAAACUGAGCGGAUAACCUCUCUAUGG
RNA 2: GGGAAUGGAUCCACAUCUACGAAUUCGUACCUUAGAGAGGUUAUCCCCUCACCGAGAUCGGAAGAGCACACGU

In the data set the target is T1, EsCas13d, nuclease-dead. As to the kind of experiment: crRNA (strand 1, pre-loaded); Mg2+; 40 mM Tris-HCl pH 7.5, 150 mM NaCl, 6 mM MgCl2, 1 mM DTT, 0.1% Tween-20, 0.2 mg/ml BSA; 25 C; 10 min per concentration, then washed. To be noted: tags: His6-TwinStrep-SUMO cleaved; N-terminal SNAP kept (SNAP-Surface 488); label: 3' end held by stalled T7 RNA polymerase.
B1: the Kd is 20.8 ± 1 nM.

The molecule B2 returned a Kd of 25 ± 1.5 nM. Turning to B3, the Kd is ~80 nM. The value for B4 was 6.6 ± 0.8 nM; that for B5 was 59 ± 7 nM. The result for B6 reads 27.4 ± 2.6 nM.

B7 showed a Kd of 30.8 ± 2.9 nM. Take B8: the equilibrium dissociation constant (Kd) was found to be 13.5 ± 1.5 nM. Take B9: the Kd was 15.3 ± 1 nM. B10 showed a Kd of 57 ± 8 nM. Regarding B11, the affinity, expressed as Kd, was 80 ± 32 nM.

Molecule B12 registered a Kd of 9.6 ± 0.6 nM.

Consider B13, for which binding was characterised by a dissociation constant (Kd) of 34 ± 4 nM. The result for B14 reads 73 ± 12 nM; that for B15, 23 ± 5 nM; that for B16, 3.51 ± 0.18 nM. The value for B17 was 28.9 ± 3.1 nM; that for B18 was 6.8 ± 0.4 nM. The result for B19 reads 12.6 ± 0.9 nM; that for B20, 11.7 ± 1.6 nM. As to B21, the Kd is ~80 nM. The result for B22 reads 53.4 ± 3.3 nM; that for B23, 7.1 ± 0.4 nM. Molecule B24 gave a Kd of 34.2 ± 3.1 nM.

For the molecule B25, the Kd came to 9.26 ± 0.34 nM. The result for B26 reads 5.4 ± 0.8 nM.

B27 registered a Kd of 63 ± 12 nM.
